In patent publication US20260015399A1 (Boehringer Ingelheim, published 2026) one finds Ki data, which are given here for six molecules.

*1 amine or outer side, *2 acyl side, *3 side chain or, on linkers, in order; H or OH if unused. Side-chain parts run from the residue outwards. The star is where a group is joined. C18 diacid = O=C(O)CCCCCCCCCCCCCCCCC(=O)*; γGlu = O=C(O)[C@H](CCC(=O)[*:2])N[*:1]; Isovaleryl = CC(C)CC(=O)*; Ahx = NCCCCCC(=O)O

T1: human NPY2 receptor (human, UniProt P49146 1-381)
T1 construct: whole, on cells; also called hNPY2-R; hNPY2R
T1 sequence (looked up): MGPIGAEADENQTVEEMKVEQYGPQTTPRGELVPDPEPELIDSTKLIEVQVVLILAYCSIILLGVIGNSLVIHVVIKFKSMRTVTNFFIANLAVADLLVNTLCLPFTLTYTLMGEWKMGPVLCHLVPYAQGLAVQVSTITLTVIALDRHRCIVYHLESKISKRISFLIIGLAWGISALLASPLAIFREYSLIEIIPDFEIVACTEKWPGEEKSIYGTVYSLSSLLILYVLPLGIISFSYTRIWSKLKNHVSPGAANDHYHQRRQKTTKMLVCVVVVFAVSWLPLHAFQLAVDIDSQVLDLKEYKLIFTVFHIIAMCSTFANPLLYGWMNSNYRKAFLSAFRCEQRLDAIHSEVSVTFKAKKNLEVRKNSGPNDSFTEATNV

B1: Compound 159 (peptide)
peptide: Isovaleryl-APEK([Ahx-γGlu-C18 diacid])PEADAEPEELQRYYISLRHYYNWLTRQRY-NH2
SMILES: CC[C@H](C)[C@H](NC(=O)[C@H](Cc1ccc(O)cc1)NC(=O)[C@H](Cc1ccc(O)cc1)NC(=O)[C@H](CCCNC(=N)N)NC(=O)[C@H](CCC(N)=O)NC(=O)[C@H](CC(C)C)NC(=O)[C@H](CCC(=O)O)NC(=O)[C@H](CCC(=O)O)NC(=O)[C@@H]1CCCN1C(=O)[C@H](CCC(=O)O)NC(=O)[C@H](C)NC(=O)[C@H](CC(=O)O)NC(=O)[C@H](C)NC(=O)[C@H](CCC(=O)O)NC(=O)[C@@H]1CCCN1C(=O)[C@H](CCCCNC(=O)CCCCCNC(=O)CC[C@H](NC(=O)CCCCCCCCCCCCCCCCC(=O)O)C(=O)O)NC(=O)[C@H](CCC(=O)O)NC(=O)[C@@H]1CCCN1C(=O)[C@H](C)NC(=O)CC(C)C)C(=O)N[C@@H](CO)C(=O)N[C@@H](CC(C)C)C(=O)N[C@@H](CCCNC(=N)N)C(=O)N[C@@H](Cc1c[nH]cn1)C(=O)N[C@@H](Cc1ccc(O)cc1)C(=O)N[C@@H](Cc1ccc(O)cc1)C(=O)N[C@@H](CC(N)=O)C(=O)N[C@@H](Cc1c[nH]c2ccccc12)C(=O)N[C@@H](CC(C)C)C(=O)N[C@H](C(=O)N[C@@H](CCCNC(=N)N)C(=O)N[C@@H](CCC(N)=O)C(=O)N[C@@H](CCCNC(=N)N)C(=O)N[C@@H](Cc1ccc(O)cc1)C(N)=O)[C@@H](C)O
B2: Compound 166 (peptide)
peptide: Isovaleryl-APAK([Ahx-γGlu-C18 diacid])PEEDASPEELQRYYVELRHYYNWLTRQRY-NH2
SMILES: CC(C)CC(=O)N[C@@H](C)C(=O)N1CCC[C@H]1C(=O)N[C@@H](C)C(=O)N[C@@H](CCCCNC(=O)CCCCCNC(=O)CC[C@H](NC(=O)CCCCCCCCCCCCCCCCC(=O)O)C(=O)O)C(=O)N1CCC[C@H]1C(=O)N[C@@H](CCC(=O)O)C(=O)N[C@@H](CCC(=O)O)C(=O)N[C@@H](CC(=O)O)C(=O)N[C@@H](C)C(=O)N[C@@H](CO)C(=O)N1CCC[C@H]1C(=O)N[C@@H](CCC(=O)O)C(=O)N[C@@H](CCC(=O)O)C(=O)N[C@@H](CC(C)C)C(=O)N[C@@H](CCC(N)=O)C(=O)N[C@@H](CCCNC(=N)N)C(=O)N[C@@H](Cc1ccc(O)cc1)C(=O)N[C@@H](Cc1ccc(O)cc1)C(=O)N[C@H](C(=O)N[C@@H](CCC(=O)O)C(=O)N[C@@H](CC(C)C)C(=O)N[C@@H](CCCNC(=N)N)C(=O)N[C@@H](Cc1c[nH]cn1)C(=O)N[C@@H](Cc1ccc(O)cc1)C(=O)N[C@@H](Cc1ccc(O)cc1)C(=O)N[C@@H](CC(N)=O)C(=O)N[C@@H](Cc1c[nH]c2ccccc12)C(=O)N[C@@H](CC(C)C)C(=O)N[C@H](C(=O)N[C@@H](CCCNC(=N)N)C(=O)N[C@@H](CCC(N)=O)C(=O)N[C@@H](CCCNC(=N)N)C(=O)N[C@@H](Cc1ccc(O)cc1)C(N)=O)[C@@H](C)O)C(C)C
B3: Compound 164 (peptide)
peptide: Isovaleryl-APEK([Ahx-γGlu-C18 diacid])PEEDATPEEIQRYYQSLRHYYNWLTRQRY-NH2
SMILES: CC[C@H](C)[C@H](NC(=O)[C@H](CCC(=O)O)NC(=O)[C@H](CCC(=O)O)NC(=O)[C@@H]1CCCN1C(=O)[C@@H](NC(=O)[C@H](C)NC(=O)[C@H](CC(=O)O)NC(=O)[C@H](CCC(=O)O)NC(=O)[C@H](CCC(=O)O)NC(=O)[C@@H]1CCCN1C(=O)[C@H](CCCCNC(=O)CCCCCNC(=O)CC[C@H](NC(=O)CCCCCCCCCCCCCCCCC(=O)O)C(=O)O)NC(=O)[C@H](CCC(=O)O)NC(=O)[C@@H]1CCCN1C(=O)[C@H](C)NC(=O)CC(C)C)[C@@H](C)O)C(=O)N[C@@H](CCC(N)=O)C(=O)N[C@@H](CCCNC(=N)N)C(=O)N[C@@H](Cc1ccc(O)cc1)C(=O)N[C@@H](Cc1ccc(O)cc1)C(=O)N[C@@H](CCC(N)=O)C(=O)N[C@@H](CO)C(=O)N[C@@H](CC(C)C)C(=O)N[C@@H](CCCNC(=N)N)C(=O)N[C@@H](Cc1c[nH]cn1)C(=O)N[C@@H](Cc1ccc(O)cc1)C(=O)N[C@@H](Cc1ccc(O)cc1)C(=O)N[C@@H](CC(N)=O)C(=O)N[C@@H](Cc1c[nH]c2ccccc12)C(=O)N[C@@H](CC(C)C)C(=O)N[C@H](C(=O)N[C@@H](CCCNC(=N)N)C(=O)N[C@@H](CCC(N)=O)C(=O)N[C@@H](CCCNC(=N)N)C(=O)N[C@@H](Cc1ccc(O)cc1)C(N)=O)[C@@H](C)O
B4: Compound 167 (peptide)
peptide: Isovaleryl-APAK([Ahx-γGlu-C18 diacid])PEEAAEPEEIQRYYVALRHYYNWLTRQRY-NH2
SMILES: CC[C@H](C)[C@H](NC(=O)[C@H](CCC(=O)O)NC(=O)[C@H](CCC(=O)O)NC(=O)[C@@H]1CCCN1C(=O)[C@H](CCC(=O)O)NC(=O)[C@H](C)NC(=O)[C@H](C)NC(=O)[C@H](CCC(=O)O)NC(=O)[C@H](CCC(=O)O)NC(=O)[C@@H]1CCCN1C(=O)[C@H](CCCCNC(=O)CCCCCNC(=O)CC[C@H](NC(=O)CCCCCCCCCCCCCCCCC(=O)O)C(=O)O)NC(=O)[C@H](C)NC(=O)[C@@H]1CCCN1C(=O)[C@H](C)NC(=O)CC(C)C)C(=O)N[C@@H](CCC(N)=O)C(=O)N[C@@H](CCCNC(=N)N)C(=O)N[C@@H](Cc1ccc(O)cc1)C(=O)N[C@@H](Cc1ccc(O)cc1)C(=O)N[C@H](C(=O)N[C@@H](C)C(=O)N[C@@H](CC(C)C)C(=O)N[C@@H](CCCNC(=N)N)C(=O)N[C@@H](Cc1c[nH]cn1)C(=O)N[C@@H](Cc1ccc(O)cc1)C(=O)N[C@@H](Cc1ccc(O)cc1)C(=O)N[C@@H](CC(N)=O)C(=O)N[C@@H](Cc1c[nH]c2ccccc12)C(=O)N[C@@H](CC(C)C)C(=O)N[C@H](C(=O)N[C@@H](CCCNC(=N)N)C(=O)N[C@@H](CCC(N)=O)C(=O)N[C@@H](CCCNC(=N)N)C(=O)N[C@@H](Cc1ccc(O)cc1)C(N)=O)[C@@H](C)O)C(C)C
B5: Compound 161 (peptide)
peptide: Isovaleryl-APAK([Ahx-γGlu-C18 diacid])PEEAAEPEELQRYYVALRHYYNWLTRQRY-NH2
SMILES: CC(C)CC(=O)N[C@@H](C)C(=O)N1CCC[C@H]1C(=O)N[C@@H](C)C(=O)N[C@@H](CCCCNC(=O)CCCCCNC(=O)CC[C@H](NC(=O)CCCCCCCCCCCCCCCCC(=O)O)C(=O)O)C(=O)N1CCC[C@H]1C(=O)N[C@@H](CCC(=O)O)C(=O)N[C@@H](CCC(=O)O)C(=O)N[C@@H](C)C(=O)N[C@@H](C)C(=O)N[C@@H](CCC(=O)O)C(=O)N1CCC[C@H]1C(=O)N[C@@H](CCC(=O)O)C(=O)N[C@@H](CCC(=O)O)C(=O)N[C@@H](CC(C)C)C(=O)N[C@@H](CCC(N)=O)C(=O)N[C@@H](CCCNC(=N)N)C(=O)N[C@@H](Cc1ccc(O)cc1)C(=O)N[C@@H](Cc1ccc(O)cc1)C(=O)N[C@H](C(=O)N[C@@H](C)C(=O)N[C@@H](CC(C)C)C(=O)N[C@@H](CCCNC(=N)N)C(=O)N[C@@H](Cc1c[nH]cn1)C(=O)N[C@@H](Cc1ccc(O)cc1)C(=O)N[C@@H](Cc1ccc(O)cc1)C(=O)N[C@@H](CC(N)=O)C(=O)N[C@@H](Cc1c[nH]c2ccccc12)C(=O)N[C@@H](CC(C)C)C(=O)N[C@H](C(=O)N[C@@H](CCCNC(=N)N)C(=O)N[C@@H](CCC(N)=O)C(=O)N[C@@H](CCCNC(=N)N)C(=O)N[C@@H](Cc1ccc(O)cc1)C(N)=O)[C@@H](C)O)C(C)C
B6: Compound 162 (peptide)
peptide: Isovaleryl-APEK([Ahx-γGlu-C18 diacid])PEEDATPEEEQRYYVSLRHYYNWLTRQRY-NH2
SMILES: CC(C)CC(=O)N[C@@H](C)C(=O)N1CCC[C@H]1C(=O)N[C@@H](CCC(=O)O)C(=O)N[C@@H](CCCCNC(=O)CCCCCNC(=O)CC[C@H](NC(=O)CCCCCCCCCCCCCCCCC(=O)O)C(=O)O)C(=O)N1CCC[C@H]1C(=O)N[C@@H](CCC(=O)O)C(=O)N[C@@H](CCC(=O)O)C(=O)N[C@@H](CC(=O)O)C(=O)N[C@@H](C)C(=O)N[C@H](C(=O)N1CCC[C@H]1C(=O)N[C@@H](CCC(=O)O)C(=O)N[C@@H](CCC(=O)O)C(=O)N[C@@H](CCC(=O)O)C(=O)N[C@@H](CCC(N)=O)C(=O)N[C@@H](CCCNC(=N)N)C(=O)N[C@@H](Cc1ccc(O)cc1)C(=O)N[C@@H](Cc1ccc(O)cc1)C(=O)N[C@H](C(=O)N[C@@H](CO)C(=O)N[C@@H](CC(C)C)C(=O)N[C@@H](CCCNC(=N)N)C(=O)N[C@@H](Cc1c[nH]cn1)C(=O)N[C@@H](Cc1ccc(O)cc1)C(=O)N[C@@H](Cc1ccc(O)cc1)C(=O)N[C@@H](CC(N)=O)C(=O)N[C@@H](Cc1c[nH]c2ccccc12)C(=O)N[C@@H](CC(C)C)C(=O)N[C@H](C(=O)N[C@@H](CCCNC(=N)N)C(=O)N[C@@H](CCC(N)=O)C(=O)N[C@@H](CCCNC(=N)N)C(=O)N[C@@H](Cc1ccc(O)cc1)C(N)=O)[C@@H](C)O)C(C)C)[C@@H](C)O

For the experiment, the target named is T1, human NPY2 receptor. In words: RLB: displacement of 125I-PYY(1-36) from hNPY2R membranes. For orientation: In a radioligand displacement assay an active substance lowers the binding of a labelled ligand.
For orientation: Ki means the equilibrium dissociation constant of an inhibitor or competing ligand from its target. A lower Ki goes with tighter binding. Take B1: the affinity corresponds to a Ki of 2.75 nM.

B2: the affinity corresponds to a Ki of 2.05 nM.

B3 returned a Ki of 2.8 nM.

For the molecule B4, the Ki amounted to 4.58 nM.

With B5, the Ki is 4 nM.

Consider B6, for which the Ki stood at 14.9 nM.
